Source: patent EP4537907A1 (Enthera S.r.l., dated 2025)

B1: YU1023-A02 (antibody, human IgG4, V domains shown)
VH: QVQLVESGPGLVKPSQTLSLTCTVSGGSISSGGYYWSWIRQHPGKGLEWIGYIYYSGSTYYNPSLKSRVTISVDTSKNQFSLKLSSVTAADTAVYYCARVRGRSATYFDYWGQGTTVTVSS
VL: QSVLTQPPSVSGAPGQRVTISCTGSSSNIGAGYDVRWYQQLPGTAPKLLIYANNNRPSGVPDRFSGSKSGTSASLAITGLQTEDEADYYCQSYDISLSGSLFGGGTKLTVL
notes: Tested as full human IgG4 carrying the S228P/L235E mutations; also called YU1023-A02 mAb
B2: YU1024-G01 (antibody, human IgG4, V domains shown)
VH: QVQLQESGGGVVQPGRSLRLSCAASGFTFSSYAMHWVRQAPGKGLEWVAVISYDGSNKYYADSVKGRFTISRDNSKNTLYLQMNSLRAEDTAVYYCARNNHPRGERLPQYWGQGTLVTVSS
VL: DIQLTQSPSSLSASVGDRVTITCRASQSVGSYLNWYQHKPGKAPKLLIYVASRLQSGVPSRFSGSGSGTDFTLTINSLQPEDFATYYCQQSYSTPLTFGGGTKVEIK
notes: Tested as full human IgG4 carrying the S228P/L235E mutations
B3: YU1025-B07 (antibody, V domains shown)
VH: QVQLVQSGGGVVQPGRSLRLSCAASGFTFSSYAMHWVRQAPGKGLEWVAVISYDGSNKYYADSVKGRFTISRDNSKNTLYLQMNSLRAEDTAVYYCARTKARWFGVTTYMDVWGKGTLVTVSS
VL: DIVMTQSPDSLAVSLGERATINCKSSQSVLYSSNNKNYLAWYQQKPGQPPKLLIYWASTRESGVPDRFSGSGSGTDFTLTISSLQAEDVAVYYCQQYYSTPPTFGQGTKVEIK
notes: as for B2
B4: YU1023-E03 (antibody, human IgG4, V domains shown)
VH: EVQLLESGGGVVQPGRSLRLSCAASGFTFSSYAMHWVRQAPGKGLEWVAVISYDGSNKYYADSVKGRFTISRDNSKNTLYLQMNSLRAEDTAVYYCARSIAAAGTRWFDPWGQGTLVTVSS
VL: DIQLTQSPSSVSASVGDRVTITCRASQGISSWLAWYQQKPGKAPKLLIYAASSLQSGVPSRFSGSGSGTDFTLTISSLQPEDFATYYCQQANSFPLTFGGGTKLEIK
notes: Tested as full human IgG4 carrying the S228P/L235E mutations; It was scarcely produced (<0.1 mg/ml)
B5: YU1023-B03 (antibody, human IgG4, V domains shown)
VH: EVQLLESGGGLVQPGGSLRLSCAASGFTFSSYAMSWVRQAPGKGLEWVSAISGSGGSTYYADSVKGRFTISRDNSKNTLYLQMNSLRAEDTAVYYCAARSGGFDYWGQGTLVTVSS
VL: DVVMTQSPLSLPVTPGEPASISCRSSQSLLHSNGYNYLDWYVQKPGQSPQRLIYFTSNRASGVPDRFSGSGSGTDFTLKISRVEAEDVGVYYCMQSIQLPRTFGQGTKVEIK
notes: as for B2

biological target: T1, mouse CD248 expressed on the cell membrane of transiently transfected HEK 293 cells (mouse, UniProt Q91V98 18-765); assay: flow cytometry on transiently transfected HEK 293 cells, secondary anti-human IgG, antibody concentration series
T1 construct: whole, on cells; also called mouse CD248+ cells
T1 sequence (looked up): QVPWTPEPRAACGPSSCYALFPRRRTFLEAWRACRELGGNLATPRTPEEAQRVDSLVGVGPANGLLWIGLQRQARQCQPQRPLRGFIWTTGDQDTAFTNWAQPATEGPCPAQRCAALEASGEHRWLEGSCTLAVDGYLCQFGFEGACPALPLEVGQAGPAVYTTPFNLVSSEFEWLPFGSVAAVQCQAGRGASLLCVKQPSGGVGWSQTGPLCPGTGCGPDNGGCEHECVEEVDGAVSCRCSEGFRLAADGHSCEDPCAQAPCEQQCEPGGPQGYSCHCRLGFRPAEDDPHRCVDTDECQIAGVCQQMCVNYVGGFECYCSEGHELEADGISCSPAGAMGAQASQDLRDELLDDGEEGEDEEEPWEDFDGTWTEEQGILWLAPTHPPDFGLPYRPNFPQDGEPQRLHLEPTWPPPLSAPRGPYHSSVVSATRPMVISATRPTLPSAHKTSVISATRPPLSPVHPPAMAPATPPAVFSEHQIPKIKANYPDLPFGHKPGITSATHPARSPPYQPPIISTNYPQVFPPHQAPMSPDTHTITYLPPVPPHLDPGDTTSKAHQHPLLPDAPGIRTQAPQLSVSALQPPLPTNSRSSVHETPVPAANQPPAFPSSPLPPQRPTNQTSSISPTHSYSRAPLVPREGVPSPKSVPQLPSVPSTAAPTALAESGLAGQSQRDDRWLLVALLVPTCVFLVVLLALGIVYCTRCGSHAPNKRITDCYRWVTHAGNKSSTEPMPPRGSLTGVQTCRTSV

Binder | EC50
B1 | 0.0388 µg/mL
B2 | ~0.00985 µg/mL
B3 | 0.0216 µg/mL
B4 | 0.891 µg/mL
B5 | 0.0184 µg/mL

biological target: T2, human CD248 expressed on the cell membrane of transiently transfected HEK 293 cells (human, UniProt Q9HCU0 18-757); assay: as above
T2 construct: whole, on cells; also called human CD248+ cells; CD248-positive cells
T2 sequence (looked up): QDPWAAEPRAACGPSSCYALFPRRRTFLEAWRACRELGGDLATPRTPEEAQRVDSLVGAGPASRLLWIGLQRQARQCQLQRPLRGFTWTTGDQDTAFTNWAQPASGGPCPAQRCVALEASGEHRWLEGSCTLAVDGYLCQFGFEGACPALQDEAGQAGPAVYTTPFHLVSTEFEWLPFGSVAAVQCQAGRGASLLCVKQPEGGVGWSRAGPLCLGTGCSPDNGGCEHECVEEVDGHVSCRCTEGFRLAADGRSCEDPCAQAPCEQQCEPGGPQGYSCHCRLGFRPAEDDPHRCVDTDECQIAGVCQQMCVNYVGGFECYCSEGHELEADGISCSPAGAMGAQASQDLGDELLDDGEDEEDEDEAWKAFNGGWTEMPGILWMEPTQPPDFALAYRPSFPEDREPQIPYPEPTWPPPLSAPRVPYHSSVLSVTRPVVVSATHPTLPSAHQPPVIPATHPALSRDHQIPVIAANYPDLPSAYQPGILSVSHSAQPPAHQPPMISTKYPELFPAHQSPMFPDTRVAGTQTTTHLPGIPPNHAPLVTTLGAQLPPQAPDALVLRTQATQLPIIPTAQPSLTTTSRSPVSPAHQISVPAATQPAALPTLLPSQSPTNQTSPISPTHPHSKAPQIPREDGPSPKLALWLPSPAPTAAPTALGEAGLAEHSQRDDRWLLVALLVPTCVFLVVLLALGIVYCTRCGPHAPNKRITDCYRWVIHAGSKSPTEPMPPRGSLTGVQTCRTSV

Binder | EC50
B1 | 0.0523 µg/mL
B2 | 0.0121 µg/mL
B3 | 0.0236 µg/mL
B4 | 1.49 µg/mL
B5 | 0.0401 µg/mL

biological target: T3, recombinant human CD248 (internally produced) (human, UniProt Q9HCU0 18-687, limits assumed, biotinylated in the inhibition ELISA); assay: BLI (Octet platform, BLItz System), mAb captured via Fc on AHC biosensor, soluble antigen at different concentrations
T3 construct: Soluble recombinant protein; also called human recombinant CD248; biotinylated CD248 (internally produced)
T3 sequence (looked up): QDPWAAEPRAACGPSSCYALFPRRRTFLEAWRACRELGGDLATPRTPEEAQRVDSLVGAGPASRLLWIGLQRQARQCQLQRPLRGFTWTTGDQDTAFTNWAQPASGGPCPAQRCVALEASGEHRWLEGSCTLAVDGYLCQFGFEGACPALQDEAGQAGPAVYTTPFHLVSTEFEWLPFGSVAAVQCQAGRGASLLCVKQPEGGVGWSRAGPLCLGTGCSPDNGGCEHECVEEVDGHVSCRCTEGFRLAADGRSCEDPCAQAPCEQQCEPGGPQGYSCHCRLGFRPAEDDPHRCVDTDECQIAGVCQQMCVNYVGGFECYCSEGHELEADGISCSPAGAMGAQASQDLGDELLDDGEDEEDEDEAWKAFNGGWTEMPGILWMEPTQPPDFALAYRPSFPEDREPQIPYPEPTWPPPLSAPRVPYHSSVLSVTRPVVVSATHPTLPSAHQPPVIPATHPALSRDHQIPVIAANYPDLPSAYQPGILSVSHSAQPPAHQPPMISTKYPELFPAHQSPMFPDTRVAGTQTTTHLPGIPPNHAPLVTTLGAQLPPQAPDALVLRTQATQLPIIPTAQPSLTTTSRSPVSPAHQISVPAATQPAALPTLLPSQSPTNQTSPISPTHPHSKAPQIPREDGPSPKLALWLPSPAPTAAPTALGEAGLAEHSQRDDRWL

Binder | Kd
B1 | 9.94 nM
B2 | 3.78 nM
B3 | 11.7 nM
B5 | 18.6 nM

biological target: T4, recombinant mouse CD248 (internally produced) (mouse, UniProt Q91V98 18-695, limits assumed); assay: as above
T4 construct: also called murine recombinant CD248; Murine CD248
T4 sequence (looked up): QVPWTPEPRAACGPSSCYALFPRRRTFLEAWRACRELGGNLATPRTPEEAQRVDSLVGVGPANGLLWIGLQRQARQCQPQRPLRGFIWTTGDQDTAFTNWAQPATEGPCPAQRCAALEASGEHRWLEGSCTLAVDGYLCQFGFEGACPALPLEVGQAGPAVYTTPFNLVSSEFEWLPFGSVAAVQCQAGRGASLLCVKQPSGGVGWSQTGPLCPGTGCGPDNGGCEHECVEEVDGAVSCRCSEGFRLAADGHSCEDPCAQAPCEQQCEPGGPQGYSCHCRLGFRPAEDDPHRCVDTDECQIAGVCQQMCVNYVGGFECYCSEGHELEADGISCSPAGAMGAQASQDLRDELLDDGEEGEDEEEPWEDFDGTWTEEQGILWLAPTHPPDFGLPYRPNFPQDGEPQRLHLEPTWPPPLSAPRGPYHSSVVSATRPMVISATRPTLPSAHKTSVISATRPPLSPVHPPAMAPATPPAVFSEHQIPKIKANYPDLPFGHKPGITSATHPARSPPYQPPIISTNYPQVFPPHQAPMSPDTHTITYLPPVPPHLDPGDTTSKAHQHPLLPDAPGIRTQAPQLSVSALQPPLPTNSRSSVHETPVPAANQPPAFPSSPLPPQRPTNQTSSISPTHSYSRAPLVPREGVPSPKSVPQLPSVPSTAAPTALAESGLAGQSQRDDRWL

Binder | Kd
B1 | 10.1 nM
B2 | 3.91 nM
B3 | 14.2 nM
B5 | 7.99 nM

biological target: T5, irrelevant antigen expressed on HEK 293 cells after transient transfection (human); assay: flow cytometry on HEK 293 cells transiently transfected with an irrelevant antigen (negative control), secondary anti-human IgG
T5 construct: Negative control antigen; also called irrelevant human antigen; irrelevant Ag+ cells

Binder | EC50
B1 | 3.16 µg/mL
B2 | 2.11 µg/mL
B3 | 1.68 µg/mL
B4 | 3.84 µg/mL
B5 | 3.66 µg/mL

biological target: T3, recombinant human CD248 (internally …); assay: competition ELISA: purified IgG4 (S228P/L235E) with biotinylated human CD248, added to immobilised human IGFBP5, Streptavidin-HRP

Binder | IC50
B1 | 20.8 µg/mL
B2 | 4.7 µg/mL
B3 | 19.2 µg/mL
B4 | 17.4 µg/mL
B5 | 47.6 µg/mL
